Data from US20090324700A1, “METHODS AND COMPOSITIONS FOR THE INHIBITION OF CATHEPSINS” (priority 2003, published 2009).

Tests used:
RelA^−/− MEFs [1] = assay: Survival assay, sphingosine, RelA^−/− MEFs; type: cell-based, mouse; settings: sphingosine 10-50 μM, 2 h; FIG. 7B
Description: (§1) Survival Assays. Although RelA^−/− MEFs are markedly more sensitive to TNF-α compared to RelA^+/+ MEFs, low levels of CHX (0.1 μg/ml) were used in the survival assays. This was to suppress any protective activity of constitutively active non-RelA NF-κB molecules that are present in RelA^−/− MEFs (FIG. 4). Thus, RelA^−/− MEFs were treated with CHX and TNF-α (R&D) and the number of live GFP-positive adherent cells was counted by flow cytometry after 16 h, if not indicated otherwise. Live cells were defined as those that excluded propidium iodide (PI-negative) and had the appropriate size, as defined by forward and side scatter characteristics (Coligan et al., 1995). For RelA^+/+ MEFs, TNF-α-cytotoxicity was determined after 16 h with CHX (10 μg/ml), if not indicated otherwise. Cathepsin B activity was inhibited by a 1 h pre-treatment of MEFs with CA-074 Me (30 μM) (Peptide Institute). […] RelA^−/− MEFs were treated with (10-50 μM) sphingosine (Calbiochem) and the number of live GFP-positive adherent cells was counted by flow cytometry after 2 h.

cathepsin B = molecular target: T1, cathepsin B (Mus musculus, UniProt P10605); assay: Cathepsin B activity in crude cytoplasmic extracts, RelA^−/− MEFs; type: cell-based; settings: TNF-α 0.2 ng/ml, CHX 0.1 μg/ml; FIG. 1C, 7A
T1 construct: endogenous in cells; host or cells: RelA-/- or RelA+/+ MEFs (retrovirally transduced with GFP, RelA, Spi2A or antisense Spi2A)
T1 sequence (P10605 80-333): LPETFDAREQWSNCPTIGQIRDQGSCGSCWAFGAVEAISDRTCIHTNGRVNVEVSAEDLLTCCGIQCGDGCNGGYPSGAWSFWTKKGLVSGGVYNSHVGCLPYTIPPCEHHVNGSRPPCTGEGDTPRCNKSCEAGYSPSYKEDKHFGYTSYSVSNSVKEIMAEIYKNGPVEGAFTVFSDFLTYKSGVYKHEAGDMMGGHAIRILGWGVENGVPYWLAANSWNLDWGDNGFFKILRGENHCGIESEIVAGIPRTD
Description: as §1
Death effector assays. Death effector pathways were induced in […] MEFs by treatment TNF-α (0.2 ng/ml) and CHX (0.1 μg/ml). […] Protein concentration was determined by Lowry assay (DC-protein assay kit, Biorad). […]
Colorimetric assays for capases were performed in reaction buffer (50 mM HEPES, pH 7.4, 100 mM NaCl, 10 mM DTT, 1 mM EDTA, 10% glycerol, 0.1% CHAPS) at 37° C. on crude cytoplasmic extracts using p-Nitoaniline (pNA)-labeled substrates (Calbiochem) specific for caspases 3 and 7 (Ac-DEVD-pNA), caspase 8 (Ac-IETD-pNA), caspase 9 (Ac-LEHD-pNA), each at 0.2 mM. Specific activity was determined by subtracting the apparent activity detected after 1 h pre-incubation of extract with the pan-caspase inhibitor Z-VAD.fmk at 50 μM (ICN Biomedicals Inc), then normalizing for the amount of protein. […] Specific activity was determined by subtracting the apparent activity detected after 30 min pre-incubation of extract at 37° C. with the cathespin B inhibitor CA-074 Me at 30 μM (Peptide Institute) then normalizing for the amount of protein.

RelA^−/− MEFs [2] = assay: Mitochondrial membrane potential (JC-1), RelA^−/− MEFs; type: cell-based, mouse; settings: TNF-α 0.2 ng/ml, CHX 0.1 μg/ml; FIG. 5C
Description: Death effector assays. Death effector pathways were induced in […] MEFs by treatment TNF-α (0.2 ng/ml) and CHX (0.1 μg/ml). Assays for executioner proteases (caspases and cathepsin B) were performed on crude cytoplasmic extracts (Stegh et al., 2000). Briefly, MEFs (10^6) were lysed in 10 mM Tris-Cl, pH 7.5, 100 mM NaCl, 1 mM EDTA, 0.01% Triton X-100 (50 μl) for 30 min on ice then centrifuged at 15,000 g for 30 min at 4° C. and the supernatant recovered. Protein concentration was determined by Lowry assay (DC-protein assay kit, Biorad). Western immunoblots were performed on crude cytosolic extracts (50 μg per lane) using standard protocols and probed with the following antibodies: goat anti-mouse Bid antiserum (1 μg/ml; R&D systems), rabbit anti-human caspase 9 antiserum (2 μg/ml; Cell Signaling Technology), rabbit anti-human caspase 3 antiserum (2 μg/ml; Cell Signaling Technology), mouse anti-human caspase 8 monoclonal antibody clone 12F5 (1 μg/ml; Axxora). […]
Mitochondrial membrane potential and ROS production were measured using the fluorescent dyes JC-1 (3 μg/ml) and dihydroethidium (HE) (5 μM)(Molecular Probes) respectively, and flow cytometry according to the manufacturer's instructions.

B1: Spi2A: murine Spi2A polypeptide, SEQ ID NO:2; purified as C-terminal 3×FLAG protein or expressed from MIGR1 retrovirus in cells and bone-marrow chimeras (protein, listed as Mus musculus)
chain: MAGVSPAVFGCPDVTLGRNTAVREVQENVTSVDSLTLVSSNTDFAFSLYRKLVLKNPDENVVFSPFSICTALALLSLGAKSNTLKEILEGLKFNLTETPEPDIHQGFRYLLDLLSQPGNQVQISTGSALFIEKHLQILAEFKEKARALYQAEAFTADFQQPLKATKLINDYVSNHTQGKIKELISGLKESTLMVLVNYIYFKGKWKNPFDPNDTFKSEFYLDEKRSVIVSMMKTGYLTTPYFRDEELSCTVVELKYTGNASAMFILPDQGRMQQVEASLQPETLRKWKNSLKPRMIHELRLPKFSISTDYSLEHILPELGIREVFSTHADLSAITGTKDLRVSQVVHKAVLDVAEKGTEAAAATGMAGVGCCAVFDFLEIFFNRPFLMIISDTKAHIALFMAKVTNPERSTNFPNGEGASSQRLESKRLCFGDPLCLIGQ
modifications: C-terminal 3xFLAG tag
notes: purified as C-terminal 3×FLAG protein or expressed from MIGR1 retrovirus in cells and bone-marrow chimeras
Protection from death after treatment with sphingosine (RelA^−/− MEFs [1]): could protect
Cytosolic cathepsin B activity after TNF-α, retrovirally transduced cells (cathepsin B): inhibited the induction
mitochondrial depolarization (RelA^−/− MEFs [2]): virtually abrogated
